Experimental data taken from patent US20190144565A1 (UCB, published 2019).

T1: sFcεRIα, the extracellular portion of the alpha chain of the human high affinity IgE receptor (human, UniProt P12319 26-205)
T1 construct: extracellular domain; also called sFcERIa; Alexa488 labelled sFcεRIα
T1 sequence (looked up): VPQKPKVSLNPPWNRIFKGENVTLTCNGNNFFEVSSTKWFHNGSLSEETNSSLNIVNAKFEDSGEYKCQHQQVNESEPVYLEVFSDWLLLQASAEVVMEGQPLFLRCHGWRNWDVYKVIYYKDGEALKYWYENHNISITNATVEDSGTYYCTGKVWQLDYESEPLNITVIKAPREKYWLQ

B1: sFcεRIα-IgG4-Fc fusion protein (α-γ) (Fc fusion, UniProt P12319 26-205, looked up)
chain: T1 sequence (looked up)
notes: extracellular domain; also called αγ-fusion protein; Alexa Fluor 647 labeled sFcεRIα-IgG4-Fc; not shown: IgG4 Fc
B2: IgE-Fc according to Seq. ID No. 108 (V224-K547) with the mutations N265Q & N371Q (other)
chain: VASRDFTPPTVKILQSSCDGGGHFPPTIQLLCLVSGYTPGTIQITWLEDGQVMDVDLSTASTTQEGELASTQSELTLSQKHWLSDRTYTCQVTYQGHTFEDSTKKCADSNPRGVSAYLSRPSPFDLFIRKSPTITCLVVDLAPSKGTVQLTWSRASGKPVNHSTRKEEKQRNGTLTVTSTLPVGTRDWIEGETYQCRVTHPHLPRALMRSTTKTSGPRAAPEVYAFATPEWPGSRDKRTLACLIQNFMPEDISVQWLHNEVQLPDARHSTTQPRKTKGSGFFVFSRLEVTRAEWEQKDEFICRAVHEAASPSQTVQRAVSVNPGK
notes: also called IgE-Fc (N265Q, N371Q); terbium labeled IgE-Fc

Legend:
[1] = molecular target: B2; test: TR-FRET; labelled αγ-fusion protein titrated on labelled IgE-Fc, no omalizumab Fab3
[2] = molecular target: T1, sFcεRIα, the extracellular portion of …; test: SPR; IgE-Fc captured on immobilised sFcεRIα
[3] = molecular target: B1; test: TR-FRET; labelled αγ-fusion protein titrated on labelled IgE-Fc, no omalizumab Fab3

Row | EC50 (read off the curve) [1] [nM] | binding result [2] | binding result [3] | Binder
1 | ~1 |  |  | B1
2 |  | binds | binds | B2
